# Source: article PMC4748814
# Changes are numbered by the printed parent chain.
# Assays:
# PNPase [1] = assay: BLI; conditions: EMSA: 20 mM Tris pH 7.5, 100 mM NaCl, 1 mM MgCl2, 1 mM DTT, 30 C, 0.2 uM RNA; BLI: same buffer + 1 mg/mL acetylated BSA; ITC: 20 mM Tris-HCl pH 7.5, 1 mM …
# [2] = system: PNPase S437-9A (active site mutant); assay: BLI; conditions: EMSA: 20 mM Tris pH 7.5, 100 mM NaCl, 1 mM MgCl2, 1 mM DTT, 30 C, 0.2 uM RNA; BLI: same buffer + 1 mg/mL acetylated BSA; ITC: 20 mM Tris-HCl pH 7.5, 1 mM …
# PNPase [3] = biological target: T1, PNPase (UniProt P05055); assay: ITC; conditions: EMSA: 20 mM Tris pH 7.5, 100 mM NaCl, 1 mM MgCl2, 1 mM DTT, 30 C, 0.2 uM RNA; BLI: same buffer + 1 mg/mL acetylated BSA; ITC: 20 mM Tris-HCl pH 7.5, 1 mM …
# T1 sequence: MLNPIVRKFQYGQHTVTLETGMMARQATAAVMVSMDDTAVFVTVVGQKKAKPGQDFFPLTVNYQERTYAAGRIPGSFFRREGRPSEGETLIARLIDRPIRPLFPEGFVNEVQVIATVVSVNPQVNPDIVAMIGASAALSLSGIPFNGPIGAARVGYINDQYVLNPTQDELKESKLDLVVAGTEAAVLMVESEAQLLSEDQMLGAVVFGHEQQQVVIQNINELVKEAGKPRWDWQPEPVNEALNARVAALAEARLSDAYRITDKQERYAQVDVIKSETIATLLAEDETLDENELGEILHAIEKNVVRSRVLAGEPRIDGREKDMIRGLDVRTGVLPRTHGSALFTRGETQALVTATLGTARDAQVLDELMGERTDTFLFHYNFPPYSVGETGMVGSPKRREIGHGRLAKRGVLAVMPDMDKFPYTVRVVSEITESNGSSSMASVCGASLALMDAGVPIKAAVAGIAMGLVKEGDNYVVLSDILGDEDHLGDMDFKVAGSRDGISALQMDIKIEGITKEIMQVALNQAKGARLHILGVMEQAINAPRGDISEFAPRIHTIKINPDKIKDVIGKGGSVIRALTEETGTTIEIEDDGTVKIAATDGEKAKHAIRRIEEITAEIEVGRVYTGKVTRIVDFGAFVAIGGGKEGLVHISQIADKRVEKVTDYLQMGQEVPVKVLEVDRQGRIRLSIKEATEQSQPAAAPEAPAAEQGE
# PNPase [4] = biological target: T1, PNPase; assay: BLI; conditions: EMSA: 20 mM Tris pH 7.5, 100 mM NaCl, 1 mM MgCl2, 1 mM DTT, 30 C, 0.2 uM RNA; BLI: same buffer + 1 mg/mL acetylated BSA; ITC: 20 mM Tris-HCl pH 7.5, 1 mM …
# [5] = biological target: T2, PNPase S437-9A (active site mutant) S437A;S438A;S439A (UniProt P05055); assay: BLI; conditions: EMSA: 20 mM Tris pH 7.5, 100 mM NaCl, 1 mM MgCl2, 1 mM DTT, 30 C, 0.2 uM RNA; BLI: same buffer + 1 mg/mL acetylated BSA; ITC: 20 mM Tris-HCl pH 7.5, 1 mM …
# T2 sequence: T1 sequence with S437A, S438A, S439A
# Hfq = Hfq (UniProt P0A6X3); assay: EMSA; conditions: EMSA: 20 mM Tris pH 7.5, 100 mM NaCl, 1 mM MgCl2, 1 mM DTT, 30 C, 0.2 uM RNA; BLI: same buffer + 1 mg/mL acetylated BSA; ITC: 20 mM Tris-HCl pH 7.5, 1 mM …
# Chain of Hfq (P0A6X3 whole entry): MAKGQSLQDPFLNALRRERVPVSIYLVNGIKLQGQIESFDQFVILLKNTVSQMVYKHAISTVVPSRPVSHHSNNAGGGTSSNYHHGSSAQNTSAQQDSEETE
# PNPase [6] = biological target: T1, PNPase; assay: EMSA; conditions: EMSA: 20 mM Tris pH 7.5, 100 mM NaCl, 1 mM MgCl2, 1 mM DTT, 30 C, 0.2 uM RNA; BLI: same buffer + 1 mg/mL acetylated BSA; ITC: 20 mM Tris-HCl pH 7.5, 1 mM …
# [7] = biological target: T2, PNPase S437-9A (active site mutant) S437A;S438A;S439A; assay: EMSA; conditions: EMSA: 20 mM Tris pH 7.5, 100 mM NaCl, 1 mM MgCl2, 1 mM DTT, 30 C, 0.2 uM RNA; BLI: same buffer + 1 mg/mL acetylated BSA; ITC: 20 mM Tris-HCl pH 7.5, 1 mM …
# PNPase delta-KH delta-S1 = biological target: T3, PNPase delta-KH delta-S1 (UniProt P05055); assay: EMSA; conditions: EMSA: 20 mM Tris pH 7.5, 100 mM NaCl, 1 mM MgCl2, 1 mM DTT, 30 C, 0.2 uM RNA; BLI: same buffer + 1 mg/mL acetylated BSA; ITC: 20 mM Tris-HCl pH 7.5, 1 mM …
# T3 sequence: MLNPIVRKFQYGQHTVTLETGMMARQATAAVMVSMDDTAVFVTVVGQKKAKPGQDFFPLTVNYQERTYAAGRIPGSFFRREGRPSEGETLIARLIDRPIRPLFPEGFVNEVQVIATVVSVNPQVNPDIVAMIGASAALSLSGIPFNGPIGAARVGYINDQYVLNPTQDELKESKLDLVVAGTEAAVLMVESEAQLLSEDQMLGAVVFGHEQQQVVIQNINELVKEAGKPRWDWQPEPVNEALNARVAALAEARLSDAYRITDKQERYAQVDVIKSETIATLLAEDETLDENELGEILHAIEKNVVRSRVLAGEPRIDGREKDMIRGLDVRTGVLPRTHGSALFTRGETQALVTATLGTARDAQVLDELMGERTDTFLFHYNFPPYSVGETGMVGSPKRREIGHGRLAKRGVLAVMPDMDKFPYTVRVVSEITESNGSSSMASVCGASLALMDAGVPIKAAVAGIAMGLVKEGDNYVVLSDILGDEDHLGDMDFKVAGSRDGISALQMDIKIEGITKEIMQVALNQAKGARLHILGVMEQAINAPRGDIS
# PNPase delta-S1 = biological target: T4, PNPase delta-S1 (UniProt P05055); assay: EMSA; conditions: EMSA: 20 mM Tris pH 7.5, 100 mM NaCl, 1 mM MgCl2, 1 mM DTT, 30 C, 0.2 uM RNA; BLI: same buffer + 1 mg/mL acetylated BSA; ITC: 20 mM Tris-HCl pH 7.5, 1 mM …
# T4 sequence: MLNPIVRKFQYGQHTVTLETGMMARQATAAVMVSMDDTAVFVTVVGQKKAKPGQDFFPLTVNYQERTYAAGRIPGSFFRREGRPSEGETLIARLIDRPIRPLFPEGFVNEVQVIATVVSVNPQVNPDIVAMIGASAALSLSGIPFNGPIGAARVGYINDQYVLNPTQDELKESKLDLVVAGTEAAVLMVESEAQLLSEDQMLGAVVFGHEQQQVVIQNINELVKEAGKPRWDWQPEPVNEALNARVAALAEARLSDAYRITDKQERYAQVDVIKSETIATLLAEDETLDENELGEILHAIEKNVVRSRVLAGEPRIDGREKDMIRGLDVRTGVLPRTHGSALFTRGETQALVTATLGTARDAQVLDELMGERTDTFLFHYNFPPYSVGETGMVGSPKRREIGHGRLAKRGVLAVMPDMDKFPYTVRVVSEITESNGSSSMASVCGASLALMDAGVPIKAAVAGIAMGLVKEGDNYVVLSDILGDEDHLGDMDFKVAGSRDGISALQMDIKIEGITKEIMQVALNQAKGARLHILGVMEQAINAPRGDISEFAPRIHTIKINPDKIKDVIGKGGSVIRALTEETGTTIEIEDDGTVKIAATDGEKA
# [8] = biological target: PNPase;Hfq (Escherichia coli K-12 MG1655 derivative?;Escherichia coli?) (UniProt P05055+P0A6X3); assay: EMSA; conditions: EMSA: 20 mM Tris pH 7.5, 100 mM NaCl, 1 mM MgCl2, 1 mM DTT, 30 C, 0.2 uM RNA; BLI: same buffer + 1 mg/mL acetylated BSA; ITC: 20 mM Tris-HCl pH 7.5, 1 mM …
# Chain of PNPase;Hfq (Escherichia coli K-12 MG1655 derivative?;Escherichia coli?) (P0A6X3 whole entry, one chain of several): as the sequence (P0A6X3 whole entry) above
# PNPase [9] = assay: ITC; conditions: no phosphate, 1 mM Mg2+, 30 C, N = 1.01, EMSA: 20 mM Tris pH 7.5, 100 mM NaCl, 1 mM MgCl2, 1 mM DTT, 0.2 uM RNA, BLI: same buffer + 1 mg/mL acetylated …, ITC: 20 mM Tris-HCl pH 7.5, 1 mM MgCl2
Substance,binding (Hfq),binding (PNPase [6]),binding [7],binding (PNPase delta-S1),binding [8],other results
5'-biotin RyhB (9U),,,,,,Kd (PNPase [1]): 15.8 nM; Kd [2]: 149 nM
GCGAUCAGGAAGACCCUCGCGGAGAACCUGAAAGCACGACAUUGCUCACAUUGCUUCCAGUAUUACUUAGCCAGCCGGGUGCUGGCUUUU [RyhB (4U)],,,,,,Kd (PNPase [3]): 85 nM
GCGAUCAGGAAGACCCUCGCGGAGAACCUGAAAGCACGACAUUGCUCACAUUGCUUCCAGUAUUACUUAGCCAGCCGGGUGCUGGCUUUUUUUUU [5'-biotin RyhB (9U)],,,,,,Kd (PNPase [4]): 15.8 nM; Kd [5]: 149 nM
GCGAUCAGGAAGACCCUCGCGGAGAACCUGAAAGCACGACAUUGCUCACAUUGCUUCCAGUAUUACUUAGCCAGCCGGGUGCUGGCUUUUUUUUU [RyhB (9U)],binds,binds,binds more weakly,binds more weakly,binds,binding (PNPase delta-KH delta-S1): binds more weakly
GCUGAAAAACAUAACCCAUAAAAUGCUAGCUGUACCAGGAACCACCUCCUUAGCCUGUGUAAUCUCCCUUACACGGGCUUAUUUUUU [CyaR],binds,binds,binds more weakly,binds more weakly,binds,
RyhB (4U),,,,,,Kd (PNPase [9]): 85 nM
